Measurements reported in the Human Domainome abundance scans (Beltran et al. 2025).
± gives the uncertainty stated by the source.

B1: Far upstream element-binding protein 2, residues 142 to 214; numbered along this chain, Q92945 (parent)
chain: RTSMTEEYRVPDGMVGLIIGRGGEQINKIQQDSGCKVQISPDSGGLPERSVSLTGAPESVQKAKMMLDDIVSR

Variants of: B1
Assay: abundance fitness (aPCA) (normalised: wild type 0, dead -1); higher = more abundant; growth selection in yeast, the domain comes from the species named
Conditions: Homo sapiens
Variant L67D has an abundance fitness of -0.462 ± 0.064.
L67N showed an abundance fitness of -0.601 ± 0.065.
Work on L67Q yielded an abundance fitness of -0.64 ± 0.064.
L67Y gave an abundance fitness of -0.84 ± 0.12.
In the case of S50T, the abundance fitness is reported as 0.008 ± 0.055.
S50W gave an abundance fitness of -0.118 ± 0.061.
S50K gave an abundance fitness of 0.044 ± 0.069.
For M14T, the abundance fitness was -0.21 ± 0.047.
Variant M14V has an abundance fitness of -0.094 ± 0.042.
M14D showed an abundance fitness of -0.209 ± 0.06.
Work on M14Q yielded an abundance fitness of -0.243 ± 0.046.
M14G gave an abundance fitness of -0.361 ± 0.04.
Variant D42F has an abundance fitness of -0.163 ± 0.085.
Work on D42S yielded an abundance fitness of -0.038 ± 0.047.
Variant D42T has an abundance fitness of 0.007 ± 0.053.
Work on D42K yielded an abundance fitness of -0.014 ± 0.067.
Variant D42W has an abundance fitness of -0.203 ± 0.055.
In the case of R1W, the abundance fitness is reported as -0.143 ± 0.054.
Work on R1D yielded an abundance fitness of 0.017 ± 0.079.
For R1P, the abundance fitness was -0.27 ± 0.11.
Work on R1H yielded an abundance fitness of -0.256 ± 0.2.
Variant R1S has an abundance fitness of -0.072 ± 0.053.
Work on R1A yielded an abundance fitness of -0.205 ± 0.068.
Variant D68F has an abundance fitness of -0.469 ± 0.081.
With D68C the abundance fitness was -0.372 ± 0.062.
Work on D68P yielded an abundance fitness of -0.882 ± 0.063.
Work on D68G yielded an abundance fitness of -0.144 ± 0.039.
Variant T54C has an abundance fitness of -0.2 ± 0.068.
T54E showed an abundance fitness of -0.135 ± 0.054.
In the case of T54D, the abundance fitness is reported as -0.424 ± 0.081.
T54M gave an abundance fitness of -0.182 ± 0.062.
For T54F, the abundance fitness was -0.278 ± 0.089.
For T54L, the abundance fitness was -0.256 ± 0.047.
Work on V10M yielded an abundance fitness of 0.041 ± 0.058.
V10D showed an abundance fitness of -0.467 ± 0.064.
Variant S3D has an abundance fitness of 0.17 ± 0.058.
In the case of S3N, the abundance fitness is reported as 0.224 ± 0.065.
For D12T, the abundance fitness was 0.105 ± 0.059.
In the case of D12Y, the abundance fitness is reported as -0.204 ± 0.071.
In the case of D12Q, the abundance fitness is reported as -0.039 ± 0.058.
For D12G, the abundance fitness was -0.04 ± 0.047.
G23Q showed an abundance fitness of -0.126 ± 0.064.
Variant G23K has an abundance fitness of -0.177 ± 0.068.
With E6F the abundance fitness was -0.1 ± 0.073.
In the case of E6A, the abundance fitness is reported as -0.021 ± 0.039.
In the case of E6M, the abundance fitness is reported as 0.187 ± 0.052.
For E6H, the abundance fitness was -0.062 ± 0.065.
In the case of E6Y, the abundance fitness is reported as -0.147 ± 0.066.
E6Q gave an abundance fitness of 0.045 ± 0.053.
With I29P the abundance fitness was -0.849 ± 0.071.
In the case of I29Q, the abundance fitness is reported as -0.841 ± 0.071.
With I29F the abundance fitness was -0.682 ± 0.11.
In the case of I29T, the abundance fitness is reported as -0.745 ± 0.065.
In the case of I29A, the abundance fitness is reported as -0.811 ± 0.053.
Variant G34H has an abundance fitness of -0.384 ± 0.1.
In the case of G34V, the abundance fitness is reported as -0.96 ± 0.061.
With G34I the abundance fitness was -0.877 ± 0.2.
Work on G34F yielded an abundance fitness of -0.887 ± 0.2.
G34M showed an abundance fitness of -0.391 ± 0.074.
For G34P, the abundance fitness was -1.16 ± 0.13.
Variant L53Q has an abundance fitness of -0.784 ± 0.083.
Work on L53F yielded an abundance fitness of -0.491 ± 0.11.
For M65V, the abundance fitness was 0.008 ± 0.046.
M65S gave an abundance fitness of 0.025 ± 0.044.
With M65I the abundance fitness was -0.025 ± 0.075.
Variant M65W has an abundance fitness of -0.211 ± 0.05.
V60H gave an abundance fitness of -0.727 ± 0.11.
For V60C, the abundance fitness was -0.355 ± 0.079.
Work on V60S yielded an abundance fitness of -0.741 ± 0.06.
Variant V60F has an abundance fitness of -0.82 ± 0.12.
V60W showed an abundance fitness of -1.26 ± 0.089.
I26G showed an abundance fitness of -0.641 ± 0.04.
Work on I26F yielded an abundance fitness of -0.492 ± 0.11.
I26Q showed an abundance fitness of -0.35 ± 0.06.
In the case of I26N, the abundance fitness is reported as -0.852 ± 0.17.
I26T gave an abundance fitness of -0.451 ± 0.061.
I26E gave an abundance fitness of -0.685 ± 0.061.
Work on A56T yielded an abundance fitness of 0.113 ± 0.051.
With A56N the abundance fitness was -0.272 ± 0.11.
Work on A56S yielded an abundance fitness of -0.008 ± 0.052.
Work on A56C yielded an abundance fitness of 0.088 ± 0.074.
In the case of G44D, the abundance fitness is reported as 0.02 ± 0.066.
Variant G44P has an abundance fitness of -0.137 ± 0.054.
